Test results: US20130156779A1 (GlaxoSmithKline, published 2013)

How the values were obtained:
[1] = molecular target: T1, Human HER3 receptor (human, UniProt P21860 20-1342); experiment: cell-based or functional assay
[2] = molecular target: T1, Human HER3 receptor; experiment: cell-based or functional assay; remark: listed apart in the source
[3] = molecular target: T2, Full-length rat HER3 extracellular domain (ECD) (rat, UniProt Q62799 20-643); experiment: BIACORE SPR, mAb captured on protein A, ECD as analyte, 25 C
T2 construct: extracellular domain; also called Rat HER3 ECD
Procedure: (§1) Protein A was immobilised on a CM5 chip by primary amine coupling to a level of ˜1300 resonance units (RU′s), humanized antibodies were then captured on this chip, All antibodies were captured to a similar level (100-200 RU's). […] Alternatively, the full-length, rat HER3 ECD or the full-length cynomolgus monkey ECD were passed over the chip at 10 nM, 5 nM, 2.5 nM, 1:25nM, 0.625 nM and 0.3125nM. An injection of buffer alone was used to double reference the binding curves as indicated in Example 1. Regeneration of this surface was achieved using 10 mM Glycine buffer pH 1.5. The binding data was fitted to the 1:1 model using BIACORE™ Evaluation software. Runs were carried out at 25° C. on a BIACORE™ T3000 using HBS-EP as running buffer.

[4] = molecular target: T3, Full-length cynomolgus monkey HER3 extracellular domain (ECD) (cynomolgus monkey, UniProt G7PIG5 20-643); experiment: as above
T3 construct: extracellular domain; also called Cynomolgus monkey HER3 ECD
Procedure: as §1

[5] = molecular target: T4, Full-length human HER3 extracellular domain (ECD) (human, UniProt P21860 20-643); experiment: as above
T4 construct: also called human HER3 ECD; HER-3 ECD full length
Procedure: as §1

[6] = molecular target: T4, Full-length human HER3 extracellular …; experiment: as above; remark: listed apart in the source
Procedure: as §1

[7] = molecular target: T4, Full-length human HER3 extracellular …; experiment: BIACORE 3000 SPR, mAb captured by anti-human Fc, ECD as analyte, 25 C
Procedure: The binding kinetics of these antibodies for was assessed using a BIACORE™ 3000. Antibodies were captured on a CM5 biosensor chip to which an immobilized anti-human IgG (Fc specific) BIACORE™ (GE Healthcare cat# BR-1008-39) monoclonal antibody had been conjugated using supplied coupling buffer (9000 RU). Full-length human HER3 ECD concentrations were injected for 120s at a flow rate of 30 ul/min. Biosensor chips were regenerated as described in Example 1. Kinetics were determined by global fitting of data to the 1:1 Langmuir model using BIACORE™ Evaluation software. Analytical runs were carried out at 25° C. using FIBS-EP as the running buffer.
Buffer cycle and double referencing were performed as described in Example 1; and 5) Regenerate biosensor chips with BIACORE™ optimized buffers.

[8] = molecular target: T4, Full-length human HER3 extracellular …; experiment: affinity summary table, method not given
[9] = molecular target: T5, Human HER3 ECD domain III (human, UniProt P21860 330-495); experiment: affinity summary table, method not given
T5 construct: also called D3; Domain 3

[10] = molecular target: T6, Human HER3 ECD domain II (human, UniProt P21860 184-329); experiment: affinity summary table, method not given
T6 construct: also called D2; Domain 2

[11] = molecular target: T6, Human HER3 ECD domain II; experiment: BIACORE 2000 SPR, mAb captured, HER3 protein as analyte, 25 C
Procedure: (§2) Mouse monoclonal antibodies were analysed using rabbit anti-mouse (RAM) IgG (GE Healthcare BR-1008-38) covalently coupled to a BIACORE™ CM5 chip (GE HEalthcare BR-1000-14) by primary amine chemistry (NHS/EDC activated) (GE Healthcare amine coupling kit BR-1000-50). Chimeric and humanized competitor monoclonal antibodies were analyzed using anti-human, Fc specific monoclonal (GE Healthcare BR-1008-39) similarly coupled. Each chip was also prepared with a reference surface to which no capture reagent antibody is coupled. Sensorgrams for cycles run with differing analyte concentrations are acquired for kinetic analysis. A cycle consists of capturing the monoclonal on the surface, a short stabilization period with flowing run buffer followed by binding of a defined concentration of analyte (ECD or sub-domain protein). Injection of analyte for surface binding (3-4 minutes) yields the association part of curve. This is followed by buffer only flow (3-4 minutes) which allows recording of dissociation data.
(§3) The general method for affinity analysis is as follows. First, chips were prepared and tested for reasonance units (RU) captured for several monoclonal antibody concentrations. Kinetic cycles were then run in which monoclonal antibody was captured to a level of approximately 100RU, analyte protein was allowed to bind then dissociate and the surface was regenerated to remove all but covalently coupled protein. RAM chips were regenerated with capture kit supplied 100 mM glycine pH1.7 and anti-human chips with capture kit supplied 3M MgCl₂. […] Several buffer cycles were run prior to analyte protein to ensure cycle consistency and in some experiments a buffer cycle is used a “double reference[.]” Analytes used were human full length HER3 extra cellular domain (ECD), separate sub-domains of the extracellular portion of human HER3 (D1, D2, D3, D4), or combination HER3 domain proteins (D1-2 and D2-3).

[12] = molecular target: T4, Full-length human HER3 extracellular …; experiment: as above
Procedure: as §2, §3

[13] = molecular target: T5, Human HER3 ECD domain III; experiment: as above
Procedure: as §2, §3

T5 sequence (P21860 330-495): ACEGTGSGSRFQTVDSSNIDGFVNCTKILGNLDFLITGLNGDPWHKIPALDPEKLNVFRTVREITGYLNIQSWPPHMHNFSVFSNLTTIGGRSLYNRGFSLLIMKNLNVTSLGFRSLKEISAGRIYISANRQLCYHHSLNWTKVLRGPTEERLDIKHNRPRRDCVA
T3 sequence (G7PIG5 entry or part of it): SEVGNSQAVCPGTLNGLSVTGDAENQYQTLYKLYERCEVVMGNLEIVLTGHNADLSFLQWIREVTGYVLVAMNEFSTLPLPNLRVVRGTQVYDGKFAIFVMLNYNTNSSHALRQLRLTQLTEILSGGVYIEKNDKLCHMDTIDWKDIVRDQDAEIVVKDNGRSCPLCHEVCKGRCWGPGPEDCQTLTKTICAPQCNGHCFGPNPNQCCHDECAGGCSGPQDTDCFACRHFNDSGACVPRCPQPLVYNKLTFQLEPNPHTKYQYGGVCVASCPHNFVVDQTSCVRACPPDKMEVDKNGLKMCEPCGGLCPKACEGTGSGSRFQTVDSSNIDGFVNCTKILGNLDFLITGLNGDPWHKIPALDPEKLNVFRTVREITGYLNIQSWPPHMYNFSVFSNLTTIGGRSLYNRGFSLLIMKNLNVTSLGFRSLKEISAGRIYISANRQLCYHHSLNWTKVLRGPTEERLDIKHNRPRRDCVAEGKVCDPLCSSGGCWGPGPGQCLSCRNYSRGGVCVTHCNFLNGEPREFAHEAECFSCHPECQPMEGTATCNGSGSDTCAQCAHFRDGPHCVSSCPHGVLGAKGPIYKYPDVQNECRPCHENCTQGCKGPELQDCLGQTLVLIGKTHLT
T2 sequence (Q62799 20-643): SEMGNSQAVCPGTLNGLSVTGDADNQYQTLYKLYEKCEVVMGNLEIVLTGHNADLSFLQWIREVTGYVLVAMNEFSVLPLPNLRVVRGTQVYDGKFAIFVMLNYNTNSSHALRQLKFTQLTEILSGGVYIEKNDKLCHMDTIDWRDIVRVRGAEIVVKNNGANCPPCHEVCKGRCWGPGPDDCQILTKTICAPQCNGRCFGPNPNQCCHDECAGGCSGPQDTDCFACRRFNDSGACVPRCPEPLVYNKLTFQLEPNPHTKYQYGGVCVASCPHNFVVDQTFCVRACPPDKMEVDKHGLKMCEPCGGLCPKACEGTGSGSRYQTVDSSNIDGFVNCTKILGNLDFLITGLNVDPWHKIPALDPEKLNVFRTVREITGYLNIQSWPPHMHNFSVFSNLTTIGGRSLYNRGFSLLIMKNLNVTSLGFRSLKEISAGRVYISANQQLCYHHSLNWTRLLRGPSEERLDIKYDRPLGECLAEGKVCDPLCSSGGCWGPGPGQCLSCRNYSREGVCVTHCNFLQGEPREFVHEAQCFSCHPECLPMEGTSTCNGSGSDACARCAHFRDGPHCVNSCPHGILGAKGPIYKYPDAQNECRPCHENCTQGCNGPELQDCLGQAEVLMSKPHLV
T6 sequence (P21860 184-329): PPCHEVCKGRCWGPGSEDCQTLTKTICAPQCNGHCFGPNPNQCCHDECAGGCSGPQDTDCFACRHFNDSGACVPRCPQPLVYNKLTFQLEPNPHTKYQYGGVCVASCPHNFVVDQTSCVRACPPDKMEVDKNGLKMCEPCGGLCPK
T1 sequence (P21860 20-1342 limits assumed): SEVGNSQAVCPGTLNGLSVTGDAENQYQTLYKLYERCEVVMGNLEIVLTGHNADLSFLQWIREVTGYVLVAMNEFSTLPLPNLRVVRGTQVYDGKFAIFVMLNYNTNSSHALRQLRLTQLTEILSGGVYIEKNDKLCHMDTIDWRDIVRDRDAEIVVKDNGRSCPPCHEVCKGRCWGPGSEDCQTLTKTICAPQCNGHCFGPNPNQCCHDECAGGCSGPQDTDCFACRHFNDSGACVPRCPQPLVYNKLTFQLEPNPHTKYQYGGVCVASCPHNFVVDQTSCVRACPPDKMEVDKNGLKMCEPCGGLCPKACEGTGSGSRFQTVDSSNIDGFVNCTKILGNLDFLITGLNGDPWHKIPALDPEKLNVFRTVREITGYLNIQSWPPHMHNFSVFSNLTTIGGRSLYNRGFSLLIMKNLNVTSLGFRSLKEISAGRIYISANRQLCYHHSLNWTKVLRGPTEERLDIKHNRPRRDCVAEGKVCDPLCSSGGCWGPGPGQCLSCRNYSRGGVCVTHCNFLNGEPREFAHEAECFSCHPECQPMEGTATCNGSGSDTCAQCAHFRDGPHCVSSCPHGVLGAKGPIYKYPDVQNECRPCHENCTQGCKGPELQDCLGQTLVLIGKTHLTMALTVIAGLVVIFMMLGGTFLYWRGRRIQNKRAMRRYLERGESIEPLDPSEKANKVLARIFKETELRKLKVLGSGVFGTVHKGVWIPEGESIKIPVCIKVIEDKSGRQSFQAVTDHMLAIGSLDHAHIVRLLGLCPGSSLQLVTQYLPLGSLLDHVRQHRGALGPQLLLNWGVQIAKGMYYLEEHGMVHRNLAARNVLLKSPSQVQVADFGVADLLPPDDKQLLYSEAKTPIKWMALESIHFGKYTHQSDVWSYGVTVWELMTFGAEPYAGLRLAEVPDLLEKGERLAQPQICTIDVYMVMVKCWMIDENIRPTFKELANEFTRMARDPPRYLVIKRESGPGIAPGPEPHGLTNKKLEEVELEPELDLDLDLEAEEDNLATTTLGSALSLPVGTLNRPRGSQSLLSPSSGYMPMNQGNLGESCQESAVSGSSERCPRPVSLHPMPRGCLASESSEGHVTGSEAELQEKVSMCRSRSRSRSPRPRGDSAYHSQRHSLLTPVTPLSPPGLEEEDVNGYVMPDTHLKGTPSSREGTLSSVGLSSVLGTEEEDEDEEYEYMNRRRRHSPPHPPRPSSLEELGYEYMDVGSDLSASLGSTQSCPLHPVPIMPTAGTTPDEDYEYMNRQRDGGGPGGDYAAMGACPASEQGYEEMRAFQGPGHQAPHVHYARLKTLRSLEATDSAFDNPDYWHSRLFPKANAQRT
T4 sequence (P21860 20-643): as the sequence (G7PIG5 entry or part of it) above, with K145R, Q151R, L166P, P180S, Y388H counted along it

B1: Humanized 1D9 Fc disabled antibody (antibody, V domains shown)
VH: QVQLVQSGAEVKKPGASVKVSCKASGYTFTSYWMHWVRQAPGQGLEWMGVIDPSDGYSHYNQKFKGKVTLTVDTSISTAYMELSRLRSDDTAVYYCAGGLAGTLDYWGQGTTVTVSS
VL: DIQMTQSPSSLSASVGDRVTITCRSSQSIVHSSGNTYLQWFQQKPGKAPKLLIYKVSNRFSGVPSRFSGSGSGTDFTLTISSLQPEDFAVYYCFQGSHVPWTFGQGTKLEIKR
notes: Humanized VH fused to a modified Fc domain incapable of mediating CDC/ADCC; also called humanized 1D9 H6L2 Fc disabled antibody
For B1, the “Phospho-AKT ELISA IC50, heregulin induced, BxPC3 cells” value [1] was 31.6 ng/mL, the “Phospho-HER3 ELISA IC50, heregulin induced, BxPC3 cells” value [2] was 10.7 ng/mL and the “Phospho-HER3 ELISA IC50, heregulin induced, CHL-1 cells” value [2] was 39.9 ng/mL. For the same binder, the “Phospho-HER3 ELISA IC50, heregulin induced, N87 cells” value [2] was 29.7 ng/mL, the “Phospho-HER3 ELISA IC50, heregulin induced, SK-BR-3 cells” value [2] was 4.4 ng/mL and the Kd [3] was 3.37 nM. For the same binder, the koff [3] was 0.0011 s⁻¹, the kon [3] was 326000 M⁻¹ s⁻¹ and the Kd [4] was 1.73 nM. It also gave a koff [4] of 0.00189 s⁻¹, a kon [4] of 1.09e+06 M⁻¹ s⁻¹ and a Kd [5] of 4.49 nM. It also gave a koff [5] of 0.00122 s⁻¹, a kon [5] of 271000 M⁻¹ s⁻¹ and a Kd [6] of 4.49 nM. It also gave a koff [6] of 0.00122 s⁻¹ and a kon [6] of 271000 M⁻¹ s⁻¹.

B2: 1D9 H0L7 RR antibody (antibody, V domains shown)
VH: QVQLVQSGAEVKKPGASVKVSCKASGYTFTSYWMHWVRQAPGQGLEWMGVIDPSDGYSHYNQKFKGRVTMTRDTSISTAYMELSRLRSDDTAVYYCARGLAGTLDYWGQGTTVTVSS
VL: DVVMTQSPLSLPVTLGQPASISCRSSQSIVHSSGNTYLQWFQQRPGQSPRRLISKVSNRFSGVPDRFSGSGSGTDFTLKISRVEAEDVGVYYCFQGSHVPWTFGQGTKLEIKR
notes: Humanized RR variant; captured by anti-human Fc
With B2 the Kd [7] was 59.5 nM, the koff [7] was 0.00195 s⁻¹ and the kon [7] was 32700 M⁻¹ s⁻¹.

B3: 1D9 H3L6 RR antibody (antibody, V domains shown)
VH: QVQLVQSGAEVKKPGASVKVSCKASGYTFTSYWMHWVRQAPGQGLEWMGVIDPSDGYSHYNQKFKGKVTMTRDTSISTAYMELSRLRSDDTAVYYCARGLAGTLDYWGQGTTVTVSS
VL: DVVMTQSPLSLPVTLGQPASISCRSSQSIVHSSGNTYLQWFQQRPGQSPRRLIYKVSNRFSGVPDRFSGSGSGTDFTLKISRVEAEDVGVYYCFQGSHVPWTFGQGTKLEIKR
With B3 the Kd [7] was 95.8 nM, the koff [7] was 0.00292 s⁻¹ and the kon [7] was 30400 M⁻¹ s⁻¹.

B4: 1D9 H6L6 RR antibody (antibody, V domains shown)
VH: QVQLVQSGAEVKKPGASVKVSCKASGYTFTSYWMHWVRQAPGQGLEWMGVIDPSDGYSHYNQKFKGKVTLTVDTSISTAYMELSRLRSDDTAVYYCAGGLAGTLDYWGQGTTVTVSS
VL: DVVMTQSPLSLPVTLGQPASISCRSSQSIVHSSGNTYLQWFQQRPGQSPRRLIYKVSNRFSGVPDRFSGSGSGTDFTLKISRVEAEDVGVYYCFQGSHVPWTFGQGTKLEIKR
notes: To be rechecked
In the case of B4, the Kd [7] is reported as 7.02 nM, the koff [7] is reported as 0.00487 s⁻¹ and the kon [7] is reported as 694000 M⁻¹ s⁻¹.

B5: Humanized 1D9 RR antibody (H6L2) (antibody, human IgG1, V domains shown)
VH: QVQLVQSGAEVKKPGASVKVSCKASGYTFTSYWMHWVRQAPGQGLEWMGVIDPSDGYSHYNQKFKGKVTLTVDTSISTAYMELSRLRSDDTAVYYCAGGLAGTLDYWGQGTTVTVSS
VL: DIQMTQSPSSLSASVGDRVTITCRSSQSIVHSSGNTYLQWFQQKPGKAPKLLIYKVSNRFSGVPSRFSGSGSGTDFTLTISSLQPEDFAVYYCFQGSHVPWTFGQGTKLEIKRR
notes: Human IgG1; also called 1D9 H6L2 RR antibody; h1D9 RR wt
B5 showed a Kd [8] of 4.1 nM, a Kd [9] of 0.018 nM and a Kd [7] of 3.96 nM. It also gave a koff [7] of 0.0017 s⁻¹ and a kon [7] of 430000 M⁻¹ s⁻¹.

B6: 1D9 H6L9 RR antibody (antibody, V domains shown)
VH: QVQLVQSGAEVKKPGASVKVSCKASGYTFTSYWMHWVRQAPGQGLEWMGVIDPSDGYSHYNQKFKGKVTLTVDTSISTAYMELSRLRSDDTAVYYCAGGLAGTLDYWGQGTTVTVSS
VL: DVVMTQSPLSLPVTLGQPASISCRSSQSIVHSSGNTYLQWFQQRPGQSPKLLISKVSNRFSGVPDRFSGSGSGTDFTLKISRVEAEDVGVYYCFQGSHVPWTFGQGTKLEIKR
notes: Humanized RR variant
B6 was tested, and the Kd [7] was 3.35 nM, the koff [7] was 0.00223 s⁻¹ and the kon [7] was 665000 M⁻¹ s⁻¹.

B7: 1D9 H0L9 RR antibody (antibody, V domains shown)
VH: QVQLVQSGAEVKKPGASVKVSCKASGYTFTSYWMHWVRQAPGQGLEWMGVIDPSDGYSHYNQKFKGRVTMTRDTSISTAYMELSRLRSDDTAVYYCARGLAGTLDYWGQGTTVTVSS
VL: DVVMTQSPLSLPVTLGQPASISCRSSQSIVHSSGNTYLQWFQQRPGQSPKLLISKVSNRFSGVPDRFSGSGSGTDFTLKISRVEAEDVGVYYCFQGSHVPWTFGQGTKLEIKR
notes: Humanized RR variant; also called 1D9 HOL9 RR antibody
B7 was tested, and the Kd [7] was 38.1 nM, the koff [7] was 0.0144 s⁻¹ and the kon [7] was 377000 M⁻¹ s⁻¹.

B8: Humanized 15D5 antibody (H4L1) (antibody, human IgG1, V domains shown)
VH: QVQLVQSGAEVKKPGASVKVSCKASGYTFTDYNMNWVRQAPGQGLEWMGGINPNYGTTVYNQKFKGKVTLTVDTSISTAYMELSRLRSDDTAVYYCARMTTIVPFDYWGQGTTVTVSS
VL: DIQMTQSPSSLSASVGDRVTITCRASQDISNYLNWYQQKPGKAPKLLIYYTSTLHSGVPSRFSGSGSGTDYTFTISSLQPEDIATYYCQQGYTLPWTFGGGTKVEIKR
notes: Human IgG1; also called h15D5
B8 was tested, and the Kd [10] was 0.074 nM, the Kd [8] was 3.5 nM and the Kd [7] was 2.62 nM. It also gave a koff [7] of 0.000196 s⁻¹ and a kon [7] of 74900 M⁻¹ s⁻¹.

B9: Chimeric 15D5 antibody (antibody, human IgG1, V domains shown)
VH: EFQLQQSGPELVKPGASVKISCKASGYSFTDYNMNWVKQNNGKSLEWIGGINPNYGTTVYNQKFKGKATLTVDQSSSTAYMQLVSLTSEDSAVYYCARMTTIVPFDYWGQGTTLTVSS
VL: DIQMTQTTFSLSASLGDRVTISCRASQDISNYLNWYQQKPDGTVKLLIYYTSTLHSGVPSRFSGSGSGTDYFLTIRNLEEEDIATYFCQQGYTLPWTFGGGTKLDIK
notes: To be rechecked; also called Ch15D5; ch15D5
For B9, the Kd [10] was 0.02 nM, the Kd [8] was roughly 1 nM and the Kd [11] was 0.02 nM. The kon [11] was 3.82e+06 M⁻¹ s⁻¹, the Kd [12] was 0.87 nM and the kon [12] was 67900 M⁻¹ s⁻¹. For the same binder, the Kd [7] was 3.19 nM, the koff [7] was 0.00014 s⁻¹ and the kon [7] was 44000 M⁻¹ s⁻¹.

B10: Chimeric 1D9 antibody (antibody, V domains shown)
VH: QVQLQQPGAELVRPGTSVKLSCKASGYTFTSYWMHWVKQRPGQGLEWIGVIDPSDGYSHYNQKFKGKATLTVDTSSSTAYMQLSSLTSEDSAVYYCAGGLAGTLDYWGQGTTLTVSS
VL: DVLMTQTPLSLPVSLGDQASISCRSSQSIVHSSGNTYLQWFLQKPGQSPKLLISKVSNRFSGVPDRFSGSGSGTDFTLRISRVEAEDLGLYYCFQGSHVPWTFGGGTKLEIK
notes: Murine VH fused to human IgG1 CH1-Fc, murine VL fused to human CK; also called Ch1D9; ch1D9
B10 was tested, and the Kd [8] was roughly 1 nM, the Kd [9] was 0.198 nM and the Kd [12] was 1.1 nM. For the same binder, the kon [12] was 740000 M⁻¹ s⁻¹, the Kd [13] was 0.2 nM and the kon [13] was 4.58e+06 M⁻¹ s⁻¹.
